B1: TPR t1 (parent)
chain: GACCAAUCUGCCCUCAGAGCUCGAGAACAUCUUCGGAUGCAGAGGAGGCAGGCUUCGGUGGCGCGAUAGCGCCAACGUCCUCAACCUCCAAUGCAUCCCACCACAUGAUGAUGCCUGAAGAGCCUUGGUUUUUUG

Variants of: B1
Experiment: polymerase ribozyme fitness, log enrichment relative to wild type (log ratio); higher = more active; in vitro selection for triplet polymerase activity
Summary of the method: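 For each subunit of a heterodimeric triplet polymerase ribozyme, a mutant library was built by PCR and transcribed, then taken through a single in vitro selection round in triplicate. Selection involved annealing to a biotinylated primer, the partner subunit and triplets, incubation frozen at −7 °C, gel excision of extended constructs, capture on streptavidin beads and RT-PCR. Genotypes were retained after Illumina sequencing of inputs and outputs only with ≥10 input reads and ≥1 read in each output. Fitness is defined as the logarithm of a genotype's enrichment relative to wild-type enrichment, using inverse-variance-weighted averages across replicates, with the logarithm taken to base 2.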

| Variant | polymerase ribozyme fitness (log ratio) |
| --- | --- |
| C8U G58C U59A G60A | -0.843 |
| C85A G113U | -3.47 |
| A26U U126G | -4.96 |
| C20U C89U A95U C115U | -3.32 |
| C13U A16C U106G | -2.43 |
| A18U C40U G113A G117A | -6 |
| C56U C70A | -3.82 |
| G52C C53A C97U C101U | -1.86 |
| A16U U81G | -5.13 |
| A27U C80A | -5.56 |
| C70U U112G | -0.342 |
| G44U G117A | -2.13 |
| A27C G35U C64U C80U U109A | -7.59 |
| G44C A95G A118G | -1.3 |
| G42C U116C U125A | -3.61 |
| C82U C97G | -4.81 |
| G42U G77A C88A U92C | -3.21 |
| G51U C115U | -4.89 |
| C34A C124G U130G | -0.7 |
| U78C C104U | 0.332 |
| C62G U106G | -4.29 |
| C4G C73A | -1.43 |
| A16U G110A U132C | -2.1 |
| A27U C40U C76G | -4.54 |

| Variant | polymerase ribozyme fitness (log ratio) |
| --- | --- |
| A16U G23A G60A A111G G122U | -7.12 |
| C22A G110U | -5.03 |
| A6U G45C C72G C101U G110C | -4.94 |
| A16U C53A A66C | -2.72 |
| A5U C49G C70A | -3.06 |
| U78G G120U | -0.202 |
| G48C C76U C88U | -1.76 |
| A6U G61A | -0.0423 |
| C49G U54A | 0.0212 |
| G71A U81C C88A C123G G135U | -0.881 |
| A66C U96C | -2.57 |
| C8U U78C U109A | -5.42 |
| G10A A16U C88A U92C G120U | -1.32 |
| A41C C70A U81A U92C | -5.78 |
| U59G C72U U106G U112A G128C | -4.15 |
| A50G C53G G61A C64U U116A G117A | -4.58 |
| G51C G52A U81C | -5.02 |
| C62A C79U C89G U130A | -3.65 |
| G48U U54C C73G C82G G113A G122A U126G | -6.92 |
| G35C G61C C79G | -6.99 |
| A50G G69A A90C | -6.86 |
| C22A | -4.89 |
| C49G G113A | -1.08 |
| C11U C101U | -0.727 |

| Variant | polymerase ribozyme fitness (log ratio) |
| --- | --- |
| G10A G51U C101A | -4.71 |
| G10A G17C C34A G47U C72G C80U C124A | -7.1 |
| A6U U7A A16C A46U C76A A84C A100C C124A | -5.09 |
| U78C G117U | -2.53 |
| A46U C88U | -1.61 |
| C15A C73G C123A | -2.17 |
| C73A U109G | -4.56 |
| C4U C15G C28U A121G | -2.9 |
| G17A U78C C94U | -3.74 |
| C82U U133A | -0.572 |
| A6G C34U G60U C72U U116A C124A | -4.04 |
| C49U G58C A111C | -0.939 |
| A91C G120U | -1.5 |
| A5U U126A | -0.78 |
| C62U C76G U78A | -0.661 |
| U21A G45U G63A G113C | -6.02 |
| C64G C124U | -5.45 |
| C94G C124G | 1.09 |
| G48A G57A G69U | -0.155 |
| U32A G58C C94U | -3.96 |
| C11G U14A G19U U55G U92G A121G | -3.45 |
| G52U C56A | -1.92 |
| C49G G122A | -0.99 |
| G48A G107A | -7.39 |

| Variant | polymerase ribozyme fitness (log ratio) |
| --- | --- |
| G39A G48U A50U A84U C85A | -3.82 |
| A2G C73A A90G A105G | -2.1 |
| C28G A29U C114G G127C | -5.87 |
| U96C G110U | -0.753 |
| U33C C124U | -3.97 |
| C15U G117U G120A | -1.56 |
| C62A G128C | -3.8 |
| G39A G57U G71U U78G | -1.84 |
| U55A U112A | 1.77 |
| C40U G48U C79A C124U | -3.57 |
| U87C U109C U130C | -5.36 |
| A41G A121U | 1.72 |
| U9A C12U G120U G128C | 0.498 |
| U9G C13U C104A | -1.55 |
| C8G A26U U81A | -3.21 |
| A2U A27G G39C G61C C62U A84U | -7.51 |
| C56U C101G A118C C124G | -2.41 |
| A46C C114U U130G | -3.02 |
| G60A C82G C86A U87G | -1.52 |
| G113C G135U | -4.15 |
| G60U G120A U126A | -0.262 |
| G61U G65A | -4.98 |
| C12U C53G G61C | 0.0604 |
| G42U G63C | -2.22 |

| Variant | polymerase ribozyme fitness (log ratio) |
| --- | --- |
| U21G A37G G61A G135U | -2.33 |
| G44U G110A | -2.64 |
| A16U G61C U130G | -2.75 |
| G47C C82U C114A | -2.65 |
| A26C C72U | -5.89 |
| U14G C40A | -2.06 |
| C4U U7A G93C C102A | -3.52 |
| G93A U132C | -0.827 |
| A18U G35U G71A A108G C115U | -6.98 |
| A24G A29U G45A G47C G77C U129A | -5.43 |
| C11G C53G C70U U96G A105C U112G | -7.25 |
| G36A G117C | -4.58 |
| U9C C99U | -1.75 |
| G47A G128A | -2.43 |
| C64U A84U U87A | -1.17 |
| A5U A103C G110A G113C | -5.8 |
| C4U U38A G45U C49G G71A | -4.53 |
| A74G A75U U106G | -1.96 |
| G44C G47A G61U U133A | -1.13 |
| G61A U81G U116G C124A | -2.39 |
| A68U G69A | -6.04 |
| C82U C85A A121U | 0.305 |
| U14G C49U G93C C101A | -4.35 |
| A91U C104U | -1.47 |

| Variant | polymerase ribozyme fitness (log ratio) |
| --- | --- |
| U87G U126G | -1.84 |
| C62A C124A | 1.01 |
| U9A G113A | -0.103 |
| G48U C53U | -2.55 |
| C4G C8G G44A U131G | -3.14 |
| C3G A37U C49U A100U G113A U129A | -4.75 |
| C53G U87G C99G C101U G107U G113A | -7.29 |
| G47A G57U G69U G117A U133G | -1.83 |
| G63U G120A U129G | -2.16 |
| C49A C56U C123A | 0.705 |
| A5U C8U C40U C123A | 1.55 |
| G48U G71U C114U | -3.21 |
| G47A C72G G113U G122A G127U | -4.96 |
| A6G G61U | -0.271 |
| G71C C94U | -3.04 |
| C53U A118U G120C U133G | 0.183 |
| G10A C94A C97U U106A | -0.642 |
| G44A G60A A68G C85U U106A U129C | -5.96 |
| G60C G135A | -1.35 |
| C11U A16G U54G C102U C104U G117A | -5.64 |
| C11G A46G U106G G128U | -2.63 |
| C12U C49A | 0.257 |
| U9A U14G A41C G42U G60U G93U A121C | 0.0286 |
| C28G C53U C56U | -2.28 |

| Variant | polymerase ribozyme fitness (log ratio) |
| --- | --- |
| G42C C102A | -4.06 |
| C82G C86A | -0.475 |
| G63U U130G | -0.881 |
| C20A A50G A74U | -3.16 |
| A2C C28U U87C | -3.82 |
| C97A G120U | -4.3 |
| C15G U78G C115U U126A | -2.34 |
| A111U A121C U126A U130G | -2.89 |
| C13U C28G | -1.58 |
| C22U G71A U78A | -4.62 |
| A50U C62U U106A | -1.01 |
| C49A C80A U112A | -5.57 |
| A37U A91G A105U | -3.28 |
| C40A G45U G63A | -2.99 |
| U125A U126G | -1.8 |
| U7A G69U C80U C99U C124G | 0.126 |
| C28G C89A | -4.51 |
| C11G C15G G36U A74C G117C | 0.809 |
| C82G A91C | -2.29 |
| C34U C56G | -4.5 |
| G51U U130A | -3.79 |
| U33A A37U U55C A100C | -6.04 |
| C62U U78C U96G U129C | -0.314 |
